Experimental data reported in patent US20240148892A1 (DUALITY BIOLOGICS SUZHOU, published 2024).

B1: W301088-1.145.16-z3-p1-uIgG1KV320 (antibody, V domains shown)
VH: QVQLQESGPGLVKPSQTLSLTCTVTDYSITGDYAWNWIRQHPGKGLEWIGYISYSGSTSYNPSLQSRVTISRDTSKNQFSLKLSSVTAADTAVYFCARSLGRRWYFVVWGQGTTVTVSS
VL: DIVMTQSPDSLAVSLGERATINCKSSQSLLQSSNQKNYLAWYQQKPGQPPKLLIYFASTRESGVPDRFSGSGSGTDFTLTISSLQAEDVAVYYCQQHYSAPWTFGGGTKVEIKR
notes: Humanized, PTM-removed (VL N027dQ) human IgG1 LALA kappa antibody; also called WBP301088; W301088-z3-p1
B2: Enoblituzumab (MacroGenics) (antibody, V domains shown)
VH: EVQLVESGGGLVQPGGSLRLSCAASGFTFSSFGMHWVRQAPGKGLEWVAYISSDSSAIYYADTVKGRFTISRDNAKNSLYLQMNSLRDEDTAVYYCGRGRENIYYGSRLDYWGQGTTVTVSS
VL: DIQLTQSPSFLSASVGDRVTITCKASQNVDTNVAWYQQKPGKAPKALIYSASYRYSGVPSRFSGSGSGTDFTLTISSLQPEDFATYYCQQYNNYPFTFGQGTKLEIKR
B3: W301088-1.145.16-xIgG1KV320 (antibody, V domains shown)
VH: DVQLQESGPGLVKPSQSLSLTCTVTDYSITGDYAWNWIRQFPGNKLEWMGYISYSGSTSYNPSLQSRISITRDTSKNQFFLQLNSVTSEDTATYFCARSLGRRWYFVVWGAGTTVTVSA
VL: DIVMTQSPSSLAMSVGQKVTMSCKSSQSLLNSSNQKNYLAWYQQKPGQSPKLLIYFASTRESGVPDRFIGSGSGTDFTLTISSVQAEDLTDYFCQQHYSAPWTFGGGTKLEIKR

Columns and labels:
[1] = target: T1, human full-length B7H3 expressed on MCF-7 cells (human, UniProt Q5ZPR3 29-534); test: cell-based or functional assay
T1 sequence: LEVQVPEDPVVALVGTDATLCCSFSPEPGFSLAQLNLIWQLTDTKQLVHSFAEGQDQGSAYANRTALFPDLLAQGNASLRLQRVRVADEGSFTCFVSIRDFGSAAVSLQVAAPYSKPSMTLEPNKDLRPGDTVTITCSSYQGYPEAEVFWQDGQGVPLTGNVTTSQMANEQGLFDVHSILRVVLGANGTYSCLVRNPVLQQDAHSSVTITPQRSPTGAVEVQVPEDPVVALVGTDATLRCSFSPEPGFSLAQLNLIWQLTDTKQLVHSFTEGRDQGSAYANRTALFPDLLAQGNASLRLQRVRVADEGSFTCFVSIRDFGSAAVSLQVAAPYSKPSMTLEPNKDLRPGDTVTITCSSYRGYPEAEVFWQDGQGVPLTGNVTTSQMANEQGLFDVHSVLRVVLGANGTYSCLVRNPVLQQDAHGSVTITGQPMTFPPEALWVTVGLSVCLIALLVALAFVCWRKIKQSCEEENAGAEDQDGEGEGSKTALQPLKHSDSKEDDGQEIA

[2] = target: T1, human full-length B7H3 expressed on …; test: flow cytometry (FACS) on MCF-7 cells expressing human full-length B7H3
Procedure: FACS was used to detect the binding of antibodies to human B7H3. This method allows quantitative analysis and identification of specific molecules expressed on the surface of living cells. Unlabeled cells were used as a control to set a threshold before the assay, and the percentage change for each group that exceeded the fluorescence intensity threshold was analyzed. MCF-7 cells expressing human full-length B7H3 (1×10⁵ cells/well) were incubated with various concentrations of antibodies (3.16-fold serially diluted with 1×DPBS/1% BSA from 50 nM to 0.0005 nM) in a volume of 100 μL/well in a refrigerator set to 4° C. for 1 h. Anti-human B7H3 reference antibody enoblituzumab (MacroGeneics) was used as a positive control. Human IgG1 isotype antibody was used as a negative control. After washing the cells with 1×DPBS/1% BSA, Alexa 647 goat anti-human antibody (diluted in a 1:500 ratio in 1×DPBS/1% BSA) was added. The cells were incubated in a refrigerator set to 4° C. for 0.5 h in the dark. The mean fluorescence intensity (MFI) of the cells was measured by a flow cytometry and analyzed by FlowJo. EC₅₀ values were calculated by four-parameter non-linear regression analysis using GraphPad Prism 7 software.

[3] = target: T2, cynomolgus monkey B7H3 on transfected FlpinCHO cells (cynomolgus monkey); test: flow cytometry (FACS) on FlpinCHO cells transfected with cynomolgus monkey B7H3
T2 construct: whole, on cells; also called W3XX088-FlpinCHO.cPro1.pool
Procedure: FACS was used to detect the binding of antibodies to cynomolgus monkey B7H3. FlpinCHO cells were transfected with cynomolgus monkey B7H3 (W3XX088-FlpinCHO.cProl.pool) (1×10⁵ cells/well), and the transfected cells were incubated with various concentrations of antibodies (3.16-fold serially diluted with 1×DPBS/1% BSA from 50 nM to 0.0005 nM) in a volume of 100 μL/well in a refrigerator set to 4 ° C. for 1 h. Anti-human B7H3 reference antibody enoblituzumab (MacroGeneics) was used as a positive control. Human IgG1 isotype antibody was used as a negative control. After washing the cells with 1×DPBS/1% BSA, Alexa 647 goat anti-human antibody (diluted in a 1:500 ratio in 1×DPBS/1% BSA) was added. The cells were incubated in a refrigerator set to 4° C. for 0.5 h in the dark. The mean fluorescence intensity (MFI) of the cells was measured by a flow cytometry and analyzed by FlowJo. EC₅₀ values were calculated by four-parameter non-linear regression analysis using GraphPad Prism 7 software.

[4] = target: T3, human 4IgB7H3 extracellular domain, 6xHis (human, UniProt Q5ZPR3 29-461); test: SPR (Biacore 8K), antibody captured on anti-human Fc IgG, human 4IgB7H3 as analyte, 1:1 model
T3 construct: range 29-461; Made in house in Expi293F cells; 47.8 kDa used in the SPR calculation; also called analyte human 4IgB7H3
T3 sequence: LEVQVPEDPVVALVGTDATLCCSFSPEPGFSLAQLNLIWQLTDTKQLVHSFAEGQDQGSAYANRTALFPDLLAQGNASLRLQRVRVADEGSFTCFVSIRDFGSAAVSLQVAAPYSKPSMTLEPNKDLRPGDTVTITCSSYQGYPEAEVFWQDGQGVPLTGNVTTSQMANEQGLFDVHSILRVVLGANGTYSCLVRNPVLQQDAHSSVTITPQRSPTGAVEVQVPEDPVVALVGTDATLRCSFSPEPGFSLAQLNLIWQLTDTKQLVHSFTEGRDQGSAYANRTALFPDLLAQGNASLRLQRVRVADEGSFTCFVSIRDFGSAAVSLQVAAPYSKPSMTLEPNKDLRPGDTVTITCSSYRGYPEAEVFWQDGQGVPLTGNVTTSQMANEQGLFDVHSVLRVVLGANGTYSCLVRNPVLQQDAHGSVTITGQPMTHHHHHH
Procedure: The affinity of antibodies for human 4IgB7H3 was determined using surface plasmon resonance (SPR). The affinity of antibodies for human 4IgB7H3 was determined by Biacore 8K. An activator was prepared by mixing 400 mM EDC and 100 mM NHS (GE) immediately prior to injection into the channel. The CMS sensor chip was activated for 420 seconds with the activator. Goat anti-human Fc IgG (30 μg/mL in 10 mM NaAc, pH 4.5) was then injected into the channel at a flow rate of 10 μL/min for 420 seconds. The chip was deactivated by 1 M ethanolamine hydrochloric acid. The antibodies diluted in running buffer (1×HBS-EP+) were injected into the channel at a flow rate of 10 μL/min for 30 seconds. […] Glycine (10 mM, pH 1.5) was injected as regeneration buffer after the dissociation phase.
The sensorgrams for the reference channel and the buffer channel were subtracted from the test sensorgrams. The experimental data were fitted with a 1:1 binding model. The molecular weight of the human 4IgB7H3 used in the calculation was 47.8 kDa.
The experimental data were fitted by a 1:1 binding model bundled with the Biacore 8K evaluation software.

| Binder | Antibody internalization EC50 (nM), MCF-7 cells, high-content imaging [1] | EC50 [2] | EC50 [3] | Kd [4] | koff [4] | kon [4] |
| --- | --- | --- | --- | --- | --- | --- |
| B1 | 0.44 nM | 1.08 nM | 4.68 nM | 0.0708 nM | 4.65e-05 s⁻¹ | 657000 M⁻¹ s⁻¹ |
| B2 | 1.95 nM | 2.49 nM | 9.58 nM | 1.02 nM | 0.000126 s⁻¹ | 124000 M⁻¹ s⁻¹ |
| B3 | 0.51 nM | 1.16 nM | 5.25 nM | 0.0515 nM | 3.39e-05 s⁻¹ | 657000 M⁻¹ s⁻¹ |
